# Legend:
# [1] = system: CPM-induced leukopenic male BDF1 mice; test: cyclophosphamide-induced mouse model of leukopenia, blood cell recovery (Example 1); format: in vivo; settings: 10 μg/kg s.c. at day 2
# Description: Mice purchased from Charles River Laboratories (Wilmington, Mass.) were housed individually in micro-isolater cages in a 12-hour light/dark cycle. They were housed under pathogen-free conditions, and received a normal standard diet and water ad libitum. They were acclimated for one week at the Association for Assessment and Accreditation of Laboratory Animal Care (AAALAC) accredited animal facility (Allergan Inc., Irvine, Calif.) prior to experiments. Study designs were approved by the Institutional Animal Care and Use Committee. Body weights were monitored throughout each study. Weight of the mice was in the range of 22-27 g at the day of treatment initiation. The mice were healthy, not previously used in other experimental procedures.
# Leukopenia was induced in male BDF1 mice (C57Bl×DBA2, 7.5-12 weeks) by an intra-peritoneal (i.p.) injection of 200 mg/kg Cyclophosphamide (CPM, Sigma-Aldrich, Saint Louis, Mo.) in 0.2 ml saline. The effect of VTP 194310 on leukocyte recovery was evaluated by oral gavage of animals with 1 mg/kg of VTP 194310 as indicated in the results section. VTP 194310 (dissolved in DMSO) was diluted through peanut oil as the vehicle (dosed at 5 ml/kg). Control mice were given DMSO and vehicle alone. As a positive control, granulocytopoiesis was stimulated in CPM-treated mice by a single sub-cutaneous injection of 10 μg/kg pegylated recombinant methionyl human granulocyte colony-stimulating factor (PEG-r-metHuG-CSF) (Neulasta, Pegfilgrastim; Amgen, Thousand Oaks, Calif.) on day 2. Three separate experiments were performed.
# Peripheral blood (60 μl) was collected under anaesthesia from the retroorbital sinus of the mice with heparinized capillary tubes and transferred to EDTA-coated microtainer tubes (Becton Dickinson, Franklin Lakes, N.J.). White cell, neutrophil, and lymphocyte counts were obtained for at least three mice per group by diluting the blood 1:4 with PBS containing 5% bovine serum albumin (Fraction V; Sigma, Saint Louis, Mo.), and by using an Advia 120 Hematology System (Bayer HealthCare Diagnostics Division, Tarrytown, N.Y.).
# [2] = system: CPM-induced neutropenic male BDF1 mice; test: mono-therapy and combination therapy on neutrophil recovery in CPM-induced neutropenic mice (Example 4); format: in vivo, mouse; settings: monotherapy; CPM 150 mg/kg Day 0; VTP 194310 1 or 3 mg/kg/day oral Days −1 to 1; PEG-G-CSF 1 or 10 μg/kg s.c. Day 2
# Protocol: VTP 194310 DMSO stock solution was made by weighing out VTP 194310 and dissolved in DMSO (25 mg/1.33 ml DMSO). This stock solution was then mixed with Vehicle (39.2 ml Corn Oil+0.8 ml DMSO).
# The 3.0 mg/kg VTP194310 solution was made by mixing 39.2 ml Corn Oil+0.8 ml VTP 194310 DMSO Stock.
# The 1.0 mg/kg VTP194310 solution was made by diluting the VTP194310 DMSO Stock 1:3 with DMSO (e.g. 1 ml DMSO+0.5 ml 4310 Stock), and then combining 39.2 ml Corn Oil+0.8 ml of the diluted VTP194310 Stock.
# The 1 and 10 μg/kg PEG-G-CSF solutions were made by diluting 6 mg/ml stock with PBS.
# Male BDF1 mice (C57Bl×DBA2), 7-8 weeks old, DOB: 1 Jun. 2006) were used in this experiment.
# 35 μl of blood (via the submandibular vein) were collected according to the scheduled time points or until the full recovery of blood cells and platelets. The blood samples were analyzed after 1:5 dilution with PBS saline containing 2% BSA (Fraction V) and 0.2 mM EDTA on the Hematology Analyzer Cell-DYN 3700 (Abbott Diagnostics).
# Each group of mice were treated with vehicle, VTP 194310 at 3 mg/kg, PEG-G-CSF at 1 or 10 μg/kg, and CPM at 150 mg/kg. The mean numbers of total white blood cells (WBC), neutrophils, lymphocytes, red blood cells (RBC) and platelets and standard error (SE) for data obtained for each treated group are shown in FIG. 4. […] Combination treatment with VTP 194310 and PEG-G-CSF further increased recovery.
# [3] = system: 5-FU-induced neutropenic male BDF1 mice; test: monotherapy and combination therapy on neutrophil recovery in 5-FU-induced neutropenic mice (Example 5); format: in vivo, mouse; settings: monotherapy; 5-FU 150 mg/kg i.v. Day 0; VTP 194310 3 mg/kg/day oral Days 2 to 4; PEG-G-CSF 10 μg/kg s.c. Day 5, 6, or 7
# Protocol: VTP194310 DMSO Stock solution was made by weighing out VTP194310 and dissolving it in DMSO (25 mg/1.33 ml DMSO).
# The Vehicle solution was made by mixing 39.2 ml Corn Oil+0.8 ml DMSO.
# The 3.0 mg/kg VTP194310 solution was made by mixing 39.2 ml Corn Oil+0.8 ml VTP 194310 DMSO Stock solution.
# The 150 mg/kg 5-FU solution was made by weighing out 187.5 mg 5-FU and mixing it with 10 g saline.
# The 10 μg/kg PEG-G-CSF solution was made by diluting 6 mg/ml stock with PBS.
# Male BDF1 mice (C57Bl×DBA2), 9 weeks old, DOB: 26 Jun. 2006) were used in this experiment.
# Each group of mice were treated with 150 mg/kg 5-FU intravenously on Day 0, vehicle or VTP194310 orally by gavage at 3 mg/kg/day on Days 2 to 4, and/or subcutaneously with PEG-G-CSF at 10 μg/kg on Days 5, 6, or 7 according to the regimens listed in the table. The mean numbers of total white blood cells (WBC), neutrophils, lymphocytes, red blood cells (RBC) and platelets and standard error (SE) of data obtained for each treated group are shown in FIG. 6.
molecule,measurement,setting,value
"PEG-G-CSF: pegylated recombinant methionyl human granulocyte colony-stimulating factor (Neulasta, Pegfilgrastim; Amgen) (protein, chains of the INN, looked up, N-terminal Met; PEG) TPLGPASSLPQSFLLKCLEQVRKIQGDGAALQEKLCATYKLCHPEELVLLGHSLGIPWAPLSSCPSQALQLAGCLSQLHSGLFLYQGLLQALEGISPELGPTLDTLQLDVADFATTIWQQMEELGMAPALQPTQGAMPAFASAFQRRAGGVLVASHLQSFLEVSYRVLRHLAQP",blood neutrophil level at day 8,[1],declined by day 8 to numbers that were observed in the control group
same,day of peak blood neutrophil level,[1],7 days
same,number of blood neutrophils,[1],sharp rise
same,neutrophil recovery relative to control,[2],enhanced neutrophil recovery
same,recovery of neutrophils relative to control,[3],little effect

# Source: US9271946B2, “Use of a RAR antagonist or inverse agonist for the treatment of chemotherapy and/or radiation therapy side effects” (IO Therapeutics, Inc., priority 2006, dated 2016)
